This data set can be described thus: label from the status in PepcDB records.

Regarding “MAASSSARVAAATAPTASPTSAAPAAPHDGEDNVAADAPYRVLIVEDDRSQALFAQSVLHGAGMHAQVEMTAASVPQAIQDYHPDLILMDLHMPELDGIRLTTLIRQQPGQQLLPIVFLTGDPDPERQFEVLDSGADDFLTKPIRPRHLIAAVSNRIRRARQQALQQAGEQVSVRSNPETGLPTRGHVMDLLADALERKQSGGLFFIEIASALGLRERYGYAAYERLMTQAGHRLASAAQPYPLARLNDNSFLLLAVDMPEASLEQQALEIRQRLSANAFPVREEESVHVRCAIGVAPLGLGFDDTGSALEAVERTALQARLRSDGVQTYLAPSQAEQQEQLRLVEGQLELAYQPIVAVAGGDTAQYQVLLRLRQADGTLLSAGQVIPAAEAAGRIADLDQQVMDHALGLLHLYQHASPPLRLFVSQSPRTLARDAFADWLLKALVERGVAGQSLIVDLRLDDALIHAVTVQQFCAKLMPAGVQFCLSQFEPGDEANALLAQLPLSFVRMANRFADAHGNAAVRDELRGVIDIAHQRGLLIIGQRIEDPQAAAAMWMSGVDFIQGNLVQTVGKELDFDFTSAVL”, the protein production result is given as “failed”.
Next, “MAATTGLETLVDQIISVITNDGRNIVGVLKGFDQATNIILDESHERVFSTKEGVQQHVLGLYIIRGDNIGVIGELDEELDASLDFSKLRAHPLKPVVH”: “failed”; “MAAWVIWFIIAGILFIAEMLSITFYMLWLGIGAVVGGLIALFAPDALLLQVTVGAIVSLTLTFFTKRISKNFREAKGFTDTVDMLVGKRGIVMQAITNEANGIVKVDGDTWTAIADSSIDAGEKVVVIKRHSTILQVKKESE”: “failed”.
Under “MAAYLERCDSVEEDYIDMEVTSFTNLVRKTLSNNYPREFEFQMSHLCPLEIDKTTSPADELFYKGKLLPLHLPPRLQMVQKILEDYTFDDEFYSTPLATGTVTTPVTSNTPFESCTVSPAESCQVSKELNPEDYFLEYSDSLEEDDEKKKSWTTKLRLMKQSSLGTKIKASRAYLRSFFGKTSCSDESSCASSAARVADEDSVLRYSRVKPFGQIKTERPKKQSNGSVSGSHRRSFSVSMRRQAAKSSNNKSSNSLGFRPLQFLKRSTSSSSEIENSIQGAILHCKQSQQQKQKQKQYSTVNEVGFCSLSASRIAARDDQEWAQMFRG” stands “failed”.
Under “MACFMALVLARFGFGFCMLLAALVLLAAATLLATRLVGWAVRAFALERSQALASGVAIFILVALALWGCHAVGEVLYGAIGATALVGGAPHWLAGNSHVSAAALMGATTAAAMLAGGPAFWRWLRARRAAAAEQPAPRKAAPPKGAKPAARAAKAAAKTQIAPRGQRIPWLGWTAFFLLFIGAAVLAFAYIVAPIEAGASGLRLEHATRARPVYLAGLTLLGGGAFFLLAWLSRRRLPGD” stands “failed”; under “MADALKIGIAGLGTVGASLVRIIQQKSNELAVTCGRPITITAVSARDKTRDRGVDLSAVAWFDRPEDLAEKGDIDVFVELMGGAEGAANVSVRAALQRGLHVVTANKALLAYHGVELATIAEEKGSLLNFEAAVAGGIPVIKALRESLTGNAVSRIYGIMNGTCNYILTKMEKEGLSFAECLKEAQRLGYAEADPAFDIEGNDTAHKLAILTTLAFGNRIAADDIYLEGITNISIEDIHAAAELGYRIKLLGVAQRTETGIEQRVHPTMVPVDSVIAQVDGITNAVAIESDVLGELLMVGPGAGGNATASSVLGDIADIAKSQPGAQRVPVLGHPAKALEPYRKAQMQSHEGGYFIRLTVLDRTGVFASVATRMAENHISLESIVQRSTQHLAPSHHQTIILVTHATMEESVRKAVASIRSEGYLFGEPQVIRIERPKEEA”, “failed”.
Regarding “MADDIRILMCPPDHYDVDYVINPWMEGNIHKSSQERAVEQWKKLHQTIKECAIVDLVKPAKGWPDMVFTANAGLVLGENVVLSRFYHKERQGEEPYFKAWFEENGFTVYELPQDLPFEGAGDALFDREGRWLWAGYGFRSELDSHPYIAKWLDTEVVSLRLIDERFYHLDTCFCPLSGGYLLYYPPAFDAYSNRVIEMRIPPEKRIIVEELDAVNFACNAVNVNDIIIMNLVSRTLKEKLAEAGFKVRETPLTEFLKAGGAAKCLTLRVTEPILPDVHATVSIESRVIRMEGHLLDAGILNQALDLVVENSGSFRVLNFNLGVERNSTSSAEVRVSAPSHQIMEEIMTELIDLGAVPPPQELCDINTETVTQGGVAPDDFYVSTIYPTEVRVNCEWVQVTGQRMDAAIVVTSNPPSARCVLLRDLQVGDRVMVGVEGIRTIKKVESHEGGTRKENKEFAFMAAGVSSERRVELLVEQIAWEMRQIRDQGGKIVVTAGPVVIHTGGAQHLSHLVREGYVHALLGGNAIAVHDIEQATMGTSLGVDMQRGIPVRGGHRHHLKIINSVRRYGGIRQAVEAGFISKGVMYECVKNNIPYCLAGSIRDDGPLPDTEMNLVRAQSRYSELIQGADMILMLSSMLHSIGVGNMTPSGVKMVCVDINPAVVTKLSDRGSVESVGVVTDVGLFLSLLVRQLQQLTRPYSLAETL”, the protein production result is “failed”.
For the sequence “MADDKKKRNKKKKRSTGNKRKMTTEQSEAFKSITDWLILGSSPSLSSSSDDFAVNINSGSLRCGEKVVFELHSHSNRSDGFLSPSKVVERAYNNGVKVLSLTDHDTMAGVPEAVEAGRRFGIKIIPGIEISTLFGLRDSGSEEPVHILAYYGTSGPALYDELEDFLVKIRDGRFVRGREMVLKLNKLKIPLKWEHVTRIAGKDVAPGRMHVARALLEAGYVENLRQAFTKYLHDGGPAYATGTEPMAEEAVKLICKTGGVAVLAHPWALKNHVGIIRRLKDAGLHGVEVYRSDGKLEVFSELADTYNLLKLGGSDYHGKGGRNESELGSVNLPVTALQDFLNVGRPIWCEAIKATMRAFLDQPSDSNLSNILRFDKARILKGNSAWSCGKELMDRCLAIWLTSDERNSNDFEALRLKLSFVPIMSNGTCVTVGP”, the protein production entry is listed as “failed”.
Next, “MADETNALRQKNRELNKKIDWQKDYDREKLERDNRDLEQCKEDLLAANENLRNRIQEWENEKNKLDPRDERIKELEEEKRELEGILAQKENAEQKYNTLSVKNKQLEAELDMLNEKFEKLKNMYAGVEDFEKRQKNIKEQIVKTNPKVLGAPSNEVEELAFLERIEKGMQEFNVFYPKRLLYMFHTALKSTSLSPLSVLSGVSGTGKSELPKLYVHFGGLNFLSIAVQPTWDSPESLMGYFHAIENKFDATEFLRFFIQTTLSNNEEPYGLKEAMSIVLLDEMNLAHIELYFAEFLSKLEIKCSQETNISIKLGTGLTWELPLGDNLLFVGTMNEDESTKMLSDKVLDRAFCLNFERPKILKGKQQKPIPSNDGYLKVETFNRWINKKGDQEAKLEGKYKKLTEEINERLDACGRSIGHRVWQSMSTYMHNHPLVLHASDKNKALQFAYEECLVLKIFPKLRGVQTRNNQHLTKIQDLLKDFSVSSDFKQAMENDFKEFVFNSTNYLNNVEYEKLLKK”: “failed”; “MADFKIVISDPQAPKEETVVKVKVVGDPEIKFDENVKEGFELPILKMNSKTAEKIKAVHGVATIRMYKPGTKDKVKITGKIIVDDNIPENEVRVNAEQLVNATGTNELEGELFRARAWQIRINDDRTKLLIGLKIGDEFDGSIVGLKNVKLKIRGGSDNSGFPMRPDVMGGVKKRVLLSGPPGFHPREKGERRRKMIRGNTITEDIVQINTVIKYV”: “failed”; “MADFSRLPGPNADLWDWQLLAACRGVDSSLFFHPEGERGAARSARENSAKEVCMRCPVRAECAAHALAVREPYGVWGGLTEDEREELMGRARNRLVAATASASAGGEAAGPH”: “failed”.
Under “MADFTLSKSLFSGKYRNASSTPGNIAYALFVLFCFWAGAQLLNLLVHAPGVYERLMQVQETGRPRVEIGLGVGTIFGLIPFLVGCLIFAVVALWLHWRHRRQ” stands “failed”; under “MADLINILNHFVQEQPEAVAVRHTNDELTYKQLDEESSKLAHLLQDSKKPMILYGHMSPYMIVGMIGAIKSGCGYVPIDTSVPKERVNMIIDKVQPEIIFNTSDETLEQTNAQVLKVSDIQDSQYPIVFDSQMKQNDVVYTIFTSGSTGEPKGVQIEYASLNEFAEWMVSLNKTGTGKEWLNQAPFSFDLSVMAIYPCLTSGGTLNLVDKDMIKKPKLLNEMLVQTPMNVWVSTPSFIEMCLLLPNLNEQQYSSLKQFFFCGEILPHKTAKALVERFPNSMIYNTYGPTEATVAVTSIQITEEILNQYNPLPVGVARPGTKLFATEEGELVIEGQSVSLGYLKNEEKTTAVFNFEDGVRTYHTGDKAKIEDGLWFIQGRIDFQIKLNGYRMELEEIETQLRQSKHVREAVVVPVYKNGKVIHLIGAVVPTEPVEDNLAMTTHIKHELKSRLPEYMIPRKFEWMEQLPLTSNGKLDRKKIAEVVNG”, “failed”.
